For one substance, Kd, koff and kon results are on record in patent publication US20230212235A1.

Assay [1] deals with GFP [GFP: P42212]. Kind of assay: SPR, GFP immobilised, nanobody injected; kinetic Kd.
Assay [2] has as its target GFP [GFP: P42212]. In words: SPR, GFP immobilised, nanobody injected; equilibrium Kd. (In general: Surface plasmon resonance follows binding to a sensor surface in real time, without labels.)
The target of assay [3] is GFP [GFP: P42212]. In words: SPR, GFP immobilised; order of magnitude told of all four nanobodies.

The term Kd denotes the concentration at which binding is half-saturated. Higher therefore signals weaker binding. For orientation: koff means the rate constant with which the complex falls apart. The low end stands for slow dissociation, the high end for fast dissociation. What is called kon is the rate constant with which the complex forms. A high value points to faster complex formation.

Take “GBN^WT (wild-type GFP-binding nanobody) (VHH)”: the Kd in assay [1] came out at 0.0189 µM. Also, in assay [2], the Kd was determined as 0.233 µM. In assay [3], this substance had a koff of 0.0001 s⁻¹ and a kon of 10000 M⁻¹ s⁻¹.
